Assay results taken from the supplement of paper PMC10567573.

B1: IFRG15 (parent)
chain: INRADYCPECYPDNPANRSLVLPW
B2: HMOX1 (parent)
chain: YHIYVALEEEIERNKESPVFAPVY

Variants of: B1
Test: protein stability index of a GFP-peptide fusion (GPS, HEK-293T) (PSI 1-6); higher = more stable
Conditions: c terminus: a fixed tail appended
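Note: lentivirally expressed fusions sorted by FACS into six bins by GFP to DsRed ratio, PSI derived from sequencing read proportions per bin multiplied by bin number.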

Protein stability index, by site and new letter:
N2: K 2.29, Y 1.7, H 1.84, A 1.65, S 1.82, F 1.55, G 2.15, R 1.26, C 3.06, T 1.78, V 1.91, M 1.88, E 2.11, Q 2.03, P 2.92, D 2.64, W 1.61, I 1.7, L 1.79
I1: G 2.05, Y 1.49, T 1.74, E 1.93, R 2.05, C 2.53, S 2.14, P 2.21, K 2.42, L 2.29, M 2.38, W 1.33, H 2.44, F 2.34, D 2.75, Q 2.26, A 2.15, V 1.92, N 3.18
A4: W 1.68, C 1.78, D 1.95, E 2.48, G 2.55, I 2.66, V 1.83, P 2.47, S 2.28, R 1.83, Q 2.28, F 1.93, M 1.51, K 2.16, L 2.09, T 2.1, H 1.65, N 2.2, Y 2.63
R3: E 2.42, Y 1.9, M 1.91, F 2.12, A 2.42, C 1.66, G 2.65, T 2.71, P 2.42, Q 2.32, L 2.14, N 2.36, D 2.59, V 1.74, K 2.39, I 1.54, S 2.2, W 1.35, H 2.39
D5: K 1.4, F 2.03, N 1.88, E 1.96, M 1.95, G 1.91, L 1.6, C 1.92, H 2.09, I 1.99, A 1.78

Variants of: B2
Test: as above
Conditions: c terminus: a fixed tail appended

Protein stability index of substitutions, site by site:
Y1: H 2.5, I 3.18, L 1.64, E 4.37, W 2.59, T 3.71, V 1.67, N 3.93, R 2.73, S 2.81, P 2.46
K15: Q 2.59, W 2.21, C 2.2, L 2.22, I 1.87, E 1.37, T 1.36, S 1.98, N 1.7, Y 2.13, P 1.53
V19: D 2.7, Y 1.46, E 2.93, A 2.3, W 1.57, M 2.24, Q 2.14, I 1.72, R 3.44
R13: D 1.52, V 2.02, C 1.39, W 2.25, S 2.23, M 1.4, P 2.11
E12: Q 1.95, C 1.52, L 1.83, S 2.42, P 3.7, H 1.58, G 3.07, R 1.62, I 1.45, M 1.2
A21: M 1.99, G 2.43, Q 2.41, K 2.8, F 2.21, W 1.7, I 1.87, N 2.31
F20: G 3.15, P 2.82, Y 2.19, K 2.27, E 2.52, A 2.41, R 2.95, W 2.41, L 2.66, V 3.06, S 2.78, N 2.78, C 3.24
E10: S 2.81, H 1.97, I 1.74, M 1.77, V 1.92, R 1.56, K 1.99, N 3.21, A 2.59, C 1.93
H2: E 3.12, I 1.51, K 2.61, A 2.34, G 2.57, S 2.46, Q 3.32, P 2.62, F 2.25, V 2.59
I11: K 2.05, E 1.89, Q 2.01, C 2.46, M 2.16, H 2.01, G 2.24, D 1.58, N 1.48
N14: E 1.98, D 2.06, H 2.14, A 1.72, L 2.05, K 2.12
Y4: Q 2.35, I 1.49, F 4.8, K 2.41, N 2.03, H 2.01, S 1.58, L 2.26, G 1.64
E9: G 2.06, L 2.57, Q 1.75, Y 1.98, T 1.7, R 2.02, I 1.62, D 1.88, P 2.6
L7: P 1.59, V 2.93, M 1.62, W 2.2, H 1.49, R 1.67, D 2.03, E 1.76, T 1.88, Y 2.02, C 2.75, N 1.88
P18: N 2.36, T 2.06, Y 1.89, Q 1.61, K 2.03, E 2.59, S 2.13, R 1.98, H 2.23, A 2.14, L 1.53, V 1.59
S17: A 2.27, H 1.83, V 1.65, C 1.86, Y 1.26, Q 1.57, T 1.69, F 1.88, G 2.29, N 2.05, M 1.93
A6: K 2.42, I 2.02, E 1.88, W 2.2, Q 2.42, P 1.99, V 3.22, D 1.81, Y 2.62, F 3.88
I3: P 2.06, R 2.43, S 2.26, K 1.91, V 2.18, Q 2.27, M 1.77, W 2.12, L 1.92, E 2.33, H 2.29
V23: T 1.83, F 1.78, Q 1.99, K 2.09, Y 1.64, W 2.65, D 2.69, I 1.87, A 2.27
V5: K 3.47, N 3.59, T 3.39, Q 3.94, F 1.63, H 2.34, M 2.79, P 2.43, R 3.13, I 1.94, A 3.79, G 2.23, L 2.29, Y 1.47, S 2.67
P22: C 1.54, N 1.68, S 1.55, T 2.1, E 2.52, M 3.18, A 2.12, Q 1.98, V 3.15
Y24: M 2.22, P 3.47, T 2.96, V 2.51, F 1.78, S 2.84, L 2.31, A 3.11, E 3.33, Q 3.09, K 2.69, W 1.98, R 3.01
E16: S 2.04, R 1.8, K 2.13, A 2.67, V 2.14, Y 1.88, W 2.14, T 2.12, L 2.32, F 2.84, G 2.04, I 1.42
E8: F 2.43, V 2.3, L 2.49, P 2.49, D 1.53, Q 3.23, Y 1.05, R 2.42, T 2.19, A 2.31, M 4.06
